# B1: modified luciferase: Luciola cruciata luciferase with Ser to Tyr change at position 286, amino acid sequence SEQ ID NO:4, encoded by codon optimized gene SEQ ID NO:3 (protein, listed as Luciola cruciata)
# chain: MENMENDENIVVGPKPFYPIEEGSAGTQLRKYMERYAKLGAIAFTNAVTGVDYSYAEYLEKSCCLGKALQNYGLVVDGRIALCSENCEEFFIPVIAGLFIGVGVAPTNEIYTLRELVHSLGISKPTIVFSSKKGLDKVITVQKTVTTIKTIVILDSKVDYRGYQCLDTFIKRNTPPGFQASSFKTVEVDRKEQVALIMNSSGSTGLPKGVQLTHENTVTRFSHARDPIYGNQVSPGTAVLTVVPFHHGFGMFTTLGYLICGFRVVMLTKFDEETFLKTLQDYKCTYVILVPTLFAILNKSELLNKYDLSNLVEIASGGAPLSKEVGEAVARRFNLPGVRQGYGLTETTSAIIITPEGDDKPGASGKVVPLFKAKVIDLDTKKSLGPNRRGEVCVKGPMLMKGYVNNPEATKELIDEEGWLHTGDIGYYDEEKHFFIVDRLKSLIKYKGYQVPPAELESVLLQHPSIFDAGVAGVPDPVAGELPGAVVVLESGKNMTEKEVMDYVASQVSNAKRLRGGVRFVDEVPKGLTGKIDGRAIREILKKPVAKM
# Key:
# [1] = Thermal stability of modified Luciola cruciata luciferase protein versus wild type protein (residual luminescence of cell lysates after incubation); conditions: for stability of the protein relative to wild type: 37° C.
# Description: (§1) Transfected NIH 3T3 cells prepared in Example 4 were lysed using a lysis buffer comprised of 25 mM Tris-phosphate (pH 7.8), containing 10% glycerol, 1% Triton X-100, 1 mg/ml BSA, 2 mM EGTA and 2 mM DTT. Cells were washed with 1× Phosphate Buffered Saline, and lysis buffer (1 mL) was added to surface of plate. Plate was incubated for 30 mins, and lysate was collected. Additionally, NIH 3T3 cells were transfected with pSV40-GL3, a construct containing wild type luciferase from Photinus pyralis, as per the method in Example 4 and lysed using the above method. As a negative control, untransfected NIH 3T3 cells were also lysed by the above method.
# (§2) Cell lysates were diluted using lysis buffer, and added in triplicate to wells of a solid white 96-well plate (Costar). Added to cell lysates was a reagent containing 1 mM D-luciferin and 2 mM ATP in a buffer comprised of 25 mM Glycylglycine, 15 mM MgSO4, 4 mM EDTA, 15 mM Potassium phosphate pH 7.8, 1 mM DTT, and 1 mM Coenzyme A.
# (§3) Luminescence was recorded using a Perkin-Elmer HTS7000 Plus Bio Assay Reader (200 ms integration time).
# Cell lysates from NIH 3T3 cells transfected with pDC99 and pSV40-GL3 (transfected according to method in Example 4), as well as untransfected cells were prepared as described in Example 5a. Luminescence of each sample was recorded as described in Example 5a to obtain a baseline value of enzyme activity. Portions of each sample were then incubated in water baths at 37° C., 42° C., and 55° C. A portion of each sample was also incubated at ambient room temperature (25° C.). At 1 hour and 2 hour intervals, aliquots of each temperature-incubation were removed and assayed for activity using the method described in Example 5a.
# NIH 3T3 cells = assay: Luciferase expression levels in transfected mammalian cells (luminescence of lysates); type: cell-based, murine; conditions: mammalian cell systems
# Description: NIH 3T3 cells (murine […] fibroblasts) were grown to 80% confluence in 100 mm tissue culture plates. Cells were transfected with either pDC57 or pDC99 using Lipofectamine and PLUS reagents (Invitrogen).
# as §1, §2, §3
molecule,measurement,setting,value
B1,stability of the protein relative to wild type,[1]; after 1 hour,> 100 fold
same,stability of the protein relative to wild type,[1]; after 2 hours,> 1000 fold
same,thermostability compared with wild-type protein,[1]; room temperature,greater thermostability
same,expression level compared to native luciferase,NIH 3T3 cells,higher expression levels

# — patent US8450054B2, “Modified Luciola cruciata luciferase gene and protein” (Marker Gene Technologies, Inc., priority 2008, dated 2013)
